Several values for one entry are separate records, joined by “and”; a condition that tells them apart may be missing. Equal values may be shown once. One block for each molecule: values may come before it.
Columns and labels:
[1] = target: T1, canine FcRn (UniProtKB-E2R0L6 [FcRn] and UniProtKB-E2RN10 [canine beta-2-microglobulin]) (canine); experiment: SPR Biacore 8K, pH 5.5, Fc captured via SASA tag on BSA, canine FcRn 200 nM
[2] = target: T1, canine FcRn; experiment: SPR Biacore 8K, pH 5.5, Fc captured via SASA tag on BSA, canine FcRn 100-800 nM
[3] = target: T1, canine FcRn; experiment: SPR Biacore 8K, pH 5.5, Fc captured via SASA tag on BSA, canine FcRn 400 nM
[4] = target: T1, canine FcRn; experiment: SPR Biacore 8K, pH 5.5, Fc captured via SASA tag on BSA, canine FcRn 200 nM; remark: listed apart in the source
[5] = target: T1, canine FcRn; experiment: as above; remark: listed apart in the source
[6] = target: T1, canine FcRn; experiment: as above; remark: listed apart in the source
[7] = target: T1, canine FcRn; experiment: as above; remark: listed apart in the source
[8] = target: T1, canine FcRn; experiment: as above; remark: listed apart in the source
[9] = target: T1, canine FcRn; experiment: SPR Biacore 8K, pH 5.5, canine FcRn 400 nM; average of the 12 wild-type runs
[10] = target: T1, canine FcRn; experiment: SPR Biacore 8K, pH 5.5, Fc captured via SASA tag on BSA, canine FcRn 200 nM; remark: listed apart in the source
[11] = target: T1, canine FcRn; experiment: as above; remark: listed apart in the source

Molecule: canine IgG.B Fc variant N434R (SASA-tagged CH2-CH3) (Fc fusion)
Kd [1]: 107 nM and 159 nM
koff [1]: 0.0524 s⁻¹ and 0.0633 s⁻¹
kon [1]: 488000 M⁻¹ s⁻¹ and 399000 M⁻¹ s⁻¹
Kd [2]: 182 nM
koff [2]: 0.0801 s⁻¹
kon [2]: 440000 M⁻¹ s⁻¹

Molecule: canine IgG.B Fc variant N434W (SASA-tagged CH2-CH3) (Fc fusion)
Kd [1]: 40.4 nM and 75.7 nM
Kd [2]: 101 nM
koff [2]: 0.045 s⁻¹
kon [2]: 446000 M⁻¹ s⁻¹

Molecule: canine IgG.B Fc variant P307A (SASA-tagged CH2-CH3) (Fc fusion)
Kd [3]: 325 nM and 338 nM
WT KD Avg/Variant KD [3]: 1.74 and 1.67

Molecule: canine IgG.B Fc variant T250A (SASA-tagged CH2-CH3) (Fc fusion)
Kd [3]: 335 nM and 328 nM
WT KD Avg/Variant KD [3]: 1.69 and 1.72

Molecule: canine IgG.B Fc variant M428A (SASA-tagged CH2-CH3) (Fc fusion)
Kd [3]: 723 nM and 1670 nM
WT KD Avg/Variant KD [3]: 0.78 and 0.34
kon [3]: 234000 M⁻¹ s⁻¹ and 318000 M⁻¹ s⁻¹

Molecule: canine IgG.B Fc variant L252A (SASA-tagged CH2-CH3) (Fc fusion)
Kd [3]: 292 nM and 240 nM
WT KD Avg/Variant KD [3]: 1.94 and 2.36

Molecule: canine IgG.B Fc variant N434Y (SASA-tagged CH2-CH3) (Fc fusion)
Kd [1]: 15.9 nM
koff [1]: 0.00968 s⁻¹
kon [1]: 607000 M⁻¹ s⁻¹
Kd [2]: 29.1 nM
koff [2]: 0.0151 s⁻¹
kon [2]: 520000 M⁻¹ s⁻¹

Molecule: canine IgG.B Fc variant N434A (SASA-tagged CH2-CH3) (Fc fusion)
Kd [3]: 457 nM and 494 nM
WT KD Avg/Variant KD [3]: 1.24 and 1.14
koff [3]: 0.237 s⁻¹ and 0.477 s⁻¹
kon [3]: 518000 M⁻¹ s⁻¹ and 966000 M⁻¹ s⁻¹
Kd [1]: 573 nM and 629 nM
koff [1]: 0.156 s⁻¹ and 0.164 s⁻¹
kon [1]: 272000 M⁻¹ s⁻¹ and 261000 M⁻¹ s⁻¹

Molecule: canine IgG.B Fc variant T250E (SASA-tagged CH2-CH3) (Fc fusion)
Kd [1]: 2480 nM and 1660 nM
koff [1]: 0.284 s⁻¹ and 0.287 s⁻¹
kon [1]: 114000 M⁻¹ s⁻¹ and 172000 M⁻¹ s⁻¹

Molecule: canine IgG.B Fc variant H433A (SASA-tagged CH2-CH3) (Fc fusion)
Kd [3]: 266 nM and 359 nM
WT KD Avg/Variant KD [3]: 2.13 and 1.58
koff [3]: 0.229 s⁻¹ and 0.0997 s⁻¹

Molecule: canine IgG.B Fc variant L252Y (SASA-tagged CH2-CH3) (Fc fusion)
Kd [1]: 98.7 nM and 114 nM
koff [1]: 0.0397 s⁻¹ and 0.041 s⁻¹
kon [1]: 402000 M⁻¹ s⁻¹ and 358000 M⁻¹ s⁻¹
Kd [2]: 173 nM
koff [2]: 0.0476 s⁻¹
kon [2]: 275000 M⁻¹ s⁻¹

Molecule: canine IgG.B Fc variant Y436A (SASA-tagged CH2-CH3) (Fc fusion)
Kd [3]: 393 nM and 876 nM
WT KD Avg/Variant KD [3]: 1.44 and 0.65
koff [3]: 0.407 s⁻¹ and 0.213 s⁻¹

Molecule: canine IgG.B Fc variant D378A (SASA-tagged CH2-CH3) (Fc fusion)
Kd [3]: 673 nM and 592 nM
WT KD Avg/Variant KD [3]: 0.84 and 0.96
koff [3]: 0.183 s⁻¹ and 0.181 s⁻¹
kon [3]: 272000 M⁻¹ s⁻¹ and 306000 M⁻¹ s⁻¹

Molecule: canine IgG.B Fc YTE variant (L252Y/A254T/T256E) (SASA-tagged CH2-CH3) (Fc fusion)
Kd [2]: 184 nM
koff [2]: 0.046 s⁻¹
kon [2]: 250000 M⁻¹ s⁻¹

Molecule: canine IgG.B Fc variant K315A (SASA-tagged CH2-CH3) (Fc fusion)
Kd [3]: 422 nM and 548 nM
WT KD Avg/Variant KD [3]: 1.34 and 1.03

Molecule: canine IgG.B Fc variant D378V (SASA-tagged CH2-CH3) (Fc fusion)
Kd [1]: 693 nM and 873 nM
koff [1]: 0.159 s⁻¹ and 0.16 s⁻¹
kon [1]: 229000 M⁻¹ s⁻¹ and 184000 M⁻¹ s⁻¹

Molecule: canine IgG.B Fc variant I308A (SASA-tagged CH2-CH3) (Fc fusion)
Kd [3]: 472 nM and 563 nM
WT KD Avg/Variant KD [3]: 1.2 and 1
koff [3]: 0.169 s⁻¹ and 0.194 s⁻¹
kon [3]: 357000 M⁻¹ s⁻¹ and 345000 M⁻¹ s⁻¹

Molecule: canine IgG.B Fc variant Q311V (SASA-tagged CH2-CH3) (Fc fusion)
Kd [1]: 372 nM and 439 nM
koff [1]: 0.566 s⁻¹ and 0.696 s⁻¹
kon [1]: 1.52e+06 M⁻¹ s⁻¹ and 1.59e+06 M⁻¹ s⁻¹

Molecule: canine IgG.B Fc variant T250Q (SASA-tagged CH2-CH3) (Fc fusion)
Kd [1]: 2590 nM and 2840 nM
koff [1]: 0.258 s⁻¹ and 0.268 s⁻¹
kon [1]: 99600 M⁻¹ s⁻¹ and 94300 M⁻¹ s⁻¹

Molecule: canine IgG.B Fc variant G309A (SASA-tagged CH2-CH3) (Fc fusion)
Kd [3]: 245 nM and 294 nM
WT KD Avg/Variant KD [3]: 2.31 and 1.92

B1: wild-type canine IgG.B Fc (SASA-tagged CH2-CH3) (Fc fusion, part only; not given: serum albumin single-domain tag, part only)
chain, part: APEMLGGPSVFIFPPKPKDTLLIARTPEVTCVVVDLDPEDPEVQISWFVDGKQMQTAKTQPREEQFNGTYRVVSVLPIGHQDWLKGKQFTCKVNNKALPSPIERTISKARGQAHQPSVYVLPPSREELSKNTVSLTCLIKDFFPPDIDVEWQSNGQQEPESKYRTTPPQLDEDGSYFLYSKLSVDKSRWQRGDTFICAVMHEALHNHYTQESLSHSPGK
Kd [4]: 502 nM and 784 nM
koff [4]: 0.169 s⁻¹ and 0.207 s⁻¹
kon [4]: 336000 M⁻¹ s⁻¹ and 264000 M⁻¹ s⁻¹
Kd [5]: 1710 nM and 2660 nM
koff [5]: 0.288 s⁻¹ and 0.326 s⁻¹
kon [5]: 168000 M⁻¹ s⁻¹ and 123000 M⁻¹ s⁻¹
Kd [6]: 2050 nM and 2990 nM
koff [6]: 0.31 s⁻¹ and 0.315 s⁻¹
kon [6]: 151000 M⁻¹ s⁻¹ and 105000 M⁻¹ s⁻¹
Kd [7]: 955 nM and 1310 nM
koff [7]: 0.181 s⁻¹ and 0.209 s⁻¹
kon [7]: 190000 M⁻¹ s⁻¹ and 159000 M⁻¹ s⁻¹
Kd [8]: 1560 nM and 754 nM
koff [8]: 0.179 s⁻¹ and 0.182 s⁻¹
kon [8]: 115000 M⁻¹ s⁻¹ and 242000 M⁻¹ s⁻¹
Kd [9]: 566 nM
Kd [10]: 639 nM and 692 nM
koff [10]: 0.17 s⁻¹ and 0.171 s⁻¹
kon [10]: 267000 M⁻¹ s⁻¹ and 247000 M⁻¹ s⁻¹
Kd [11]: 884 nM and 862 nM
koff [11]: 0.21 s⁻¹ and 0.218 s⁻¹
kon [11]: 237000 M⁻¹ s⁻¹ and 253000 M⁻¹ s⁻¹
Kd [1]: 8990 nM and 3110 nM
koff [1]: 0.347 s⁻¹ and 0.354 s⁻¹
kon [1]: 38700 M⁻¹ s⁻¹ and 114000 M⁻¹ s⁻¹
Kd [2]: 3150 nM
koff [2]: 0.527 s⁻¹
kon [2]: 168000 M⁻¹ s⁻¹

Now from value to molecule:

Kd [3]: 341 nM and 257 nM
WT KD Avg/Variant KD [3]: 1.66 and 2.2
Molecule: canine IgG.B Fc variant Q285A (SASA-tagged CH2-CH3) (Fc fusion)

Kd [3]: 464 nM and 569 nM
WT KD Avg/Variant KD [3]: 1.22 and 0.99
koff [3]: 0.196 s⁻¹ and 0.304 s⁻¹
kon [3]: 422000 M⁻¹ s⁻¹ and 533000 M⁻¹ s⁻¹
Molecule: canine IgG.B Fc variant T286A (SASA-tagged CH2-CH3) (Fc fusion)

Kd [3]: 618 nM and 747 nM
WT KD Avg/Variant KD [3]: 0.76 and 0.92
koff [3]: 0.369 s⁻¹ and 0.18 s⁻¹
kon [3]: 598000 M⁻¹ s⁻¹ and 241000 M⁻¹ s⁻¹
Kd [1]: 1320 nM and 1570 nM
koff [1]: 0.223 s⁻¹ and 0.239 s⁻¹
kon [1]: 168000 M⁻¹ s⁻¹ and 152000 M⁻¹ s⁻¹
Molecule: canine IgG.B Fc variant E380A (SASA-tagged CH2-CH3) (Fc fusion)

Kd [3]: 368 nM and 370 nM
WT KD Avg/Variant KD [3]: 1.54 and 1.53
koff [3]: 0.894 s⁻¹ and 0.496 s⁻¹
kon [3]: 2.43e+06 M⁻¹ s⁻¹ and 1.34e+06 M⁻¹ s⁻¹
Molecule: canine IgG.B Fc variant Q311A (SASA-tagged CH2-CH3) (Fc fusion)

Kd [1]: 2290 nM and 1340 nM
koff [1]: 0.375 s⁻¹ and 0.433 s⁻¹
kon [1]: 163000 M⁻¹ s⁻¹ and 323000 M⁻¹ s⁻¹
Molecule: canine IgG.B Fc variant A254T (SASA-tagged CH2-CH3) (Fc fusion)

Kd [1]: 924 nM and 1050 nM
koff [1]: 0.207 s⁻¹ and 0.209 s⁻¹
kon [1]: 225000 M⁻¹ s⁻¹ and 199000 M⁻¹ s⁻¹
Molecule: canine IgG.B Fc variant N434S (SASA-tagged CH2-CH3) (Fc fusion)

Kd [2]: 247 nM
koff [2]: 0.102 s⁻¹
kon [2]: 411000 M⁻¹ s⁻¹
Molecule: canine IgG.B Fc variant N434H (SASA-tagged CH2-CH3) (Fc fusion)

Kd [3]: 447 nM and 298 nM
WT KD Avg/Variant KD [3]: 1.27 and 1.9
Molecule: canine IgG.B Fc variant T256A (SASA-tagged CH2-CH3) (Fc fusion)

Kd [1]: 869 nM and 774 nM
koff [1]: 0.168 s⁻¹ and 0.169 s⁻¹
kon [1]: 193000 M⁻¹ s⁻¹ and 218000 M⁻¹ s⁻¹
Molecule: canine IgG.B Fc variant L252M (SASA-tagged CH2-CH3) (Fc fusion)

Kd [3]: 340 nM and 317 nM
WT KD Avg/Variant KD [3]: 1.66 and 1.78
Molecule: canine IgG.B Fc variant A254S (SASA-tagged CH2-CH3) (Fc fusion)
